Values quoted from earlier work in article PMC3432731.

Target: Cyclin A (Homo sapiens) (UniProt P20248)
Chain of UniProt P20248 (P20248 whole entry): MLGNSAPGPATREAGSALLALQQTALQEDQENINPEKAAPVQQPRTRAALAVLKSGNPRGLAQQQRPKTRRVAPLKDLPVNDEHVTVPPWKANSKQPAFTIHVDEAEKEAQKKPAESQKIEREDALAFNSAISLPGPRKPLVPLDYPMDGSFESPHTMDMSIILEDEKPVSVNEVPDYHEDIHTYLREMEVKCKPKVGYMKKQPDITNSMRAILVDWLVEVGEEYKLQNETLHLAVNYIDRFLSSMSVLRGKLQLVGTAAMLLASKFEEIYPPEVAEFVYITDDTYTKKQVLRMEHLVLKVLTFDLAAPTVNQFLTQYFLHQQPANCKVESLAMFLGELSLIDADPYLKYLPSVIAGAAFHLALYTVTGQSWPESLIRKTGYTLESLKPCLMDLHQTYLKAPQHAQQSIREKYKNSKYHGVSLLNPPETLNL

Q: Which Kd does the source give for p27 (from UniProt P46527) here?
A: The Kd was 25 nM.
